Drawing on patent US20150037304, this text covers activity (% modified HLA-A3 alleles) and activity (% HLA-A2 negative cells) for 4 sequences.

What all share (test): cell_activity
Series [1] has as its system ZFN SBS#25191 (HLA-A3) (synthetic construct). To be noted: HEK293, Surveyor assay; ZFN identity (pair 25191/25190) inferred from Table 1.
The subject of series [2] is ZFN SBS#25190 (HLA-A3) (synthetic construct). To be noted: HEK293, Surveyor assay; ZFN identity (pair 25191/25190) inferred from Table 1.
Series [3] relates to ZFN SBS#18889 (ZFN-L, HLA-A2) (synthetic construct). To be noted: pair with 18881, EL/KK FokI, primary T cells, 2.5 ug each mRNA; 19% at 37C and up to 57% with 30C cold shock without EL/KK; Table 2 prints AGG where listing ….
For series [4], the system named is ZFN SBS#18881 (ZFN-R, HLA-A2) (synthetic construct). To be noted: pair with 18889, EL/KK FokI, primary T cells, 2.5 ug each mRNA; 19% at 37C and up to 57% with 30C cold shock without EL/KK.

“ATGGAGCCGCGGGCGCCGTGGATAGAGC (double strand) [HLA-A3 target site of 25191]” displayed an activity (% modified HLA-A3 alleles) in series [1] of 10.

“CTGGCTCGCGGCGTCGCTGTCGAACCGC (double strand) [HLA-A3 target site of 25190]” yielded an activity (% modified HLA-A3 alleles) in series [2] of 10.

Turning to “GTATGGCTGCGACGTGGGGTCGGACGGG (double strand) [HLA-A2 target site of 18889]”, in series [3], the activity (% HLA-A2 negative cells) was determined as 52.

In turn, “TTATCTGGATGGTGTGAGAACCTGGCCC (double strand) [HLA-A2 target site of 18881]” showed an activity (% HLA-A2 negative cells) in series [4] of 52.
